Source: publication doi:10.1101/2022.03.17.484533

Key:
[1] = target: LiRecT (RecT homolog from the A118 prophage of Listeria innocua) (Listeria innocua); assay: native MS
[2] = target: LiRecT (RecT homolog from the A118 prophage of Listeria innocua) (Listeria innocua); assay: cryo-EM structure
[3] = target: LiRecT (RecT homolog from the A118 prophage of Listeria innocua) (Listeria innocua); assay: cryo-EM structure; remark: listed apart in the source

LiRecT (RecT homolog from the A118 prophage of Listeria innocua) (natural protein)
stoichiometry N [1]: < 9 subunits | stoichiometry N [2]: 12 subunits | stoichiometry N [3]: 18 subunits
